In the supplement of paper PMC11780869:

Tested on: Bacillus subtilis
Test: cleaved RNA product abundance (RNA/gDNA barcode ratio) relative to median wild-type variant (ratio to wild type); higher = more accumulation of the downstream cleavage product
Procedure, shortened: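 Truncated aprE or tetM reporter mRNAs with barcoded RNase Y cleavage-site windows, mutagenized from oligos at a 9% error rate, sat in the B. subtilis chromosome. Cells grew in LB at 37°C from OD600 0.0003 to 0.3. Gel-selected cleaved RNA was reverse transcribed and its barcodes sequenced with those from genomic DNA, collapsing by UMI. Cleaved product abundance equals the RNA:gDNA barcode ratio per construct over the median construct with the unmutated site.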

[1] = experiment (reporter, strain, medium): exp 2b: truncated aprE reporter, strain BJT200, cleavage site: cggR-gapA (positions -7 to +36 mutated)
[2] = experiment (reporter, strain, medium): exp 4a: truncated aprE reporter, strain BJT201 with 2% xylose (RNase J1 expressed), cleavage site: cggR-gapA (positions -7 to +36 mutated)
[3] = experiment (reporter, strain, medium): exp 8a: truncated aprE reporter, strain BJT201 with 2% xylose (RNase J1 expressed), cleavage site: glnRA (positions -5 to +31 mutated)
[4] = experiment (reporter, strain, medium): exp 6: tetM reporter, strain 168, cleavage site: cggR-gapA (positions -7 to +36 mutated)

Sequence	cleaved RNA product abundance [1]	cleaved RNA product abundance [2]	cleaved RNA product abundance [3]	cleaved RNA product abundance [4]
ACAGACGAAGGAGCCGCAAAGAAGTTATTAAAGGATGAATAATCCCTCAATATAAATAACTCTCACTTATTTAAA	0.157	0.229		
CGACATGTCCCGCTTCTTTCATTATTCCGTTAGCACCTGTTTTGCTATATACATTTACCTTTTAAGAGGAGGAAT			1.18	
ACAGACGAAGGAGCCGCAAAGAATTTATTAAGGGATGAATAATCCCTCACTATAAATATCTCTCACTTATTTAAA	0.193	0.283		
CGACATGTCCCGCTTCTTTCATTAATCCGTTAGCAACTGTTTTGCTATAGACATTCACCTTTTAAGAGGAGGAAT			0.435	
ACAGACGAAGGAGCCGCAAAGTAGTTATTAAGGGATGAATAATCCCTCAAAATAAATATCTCTCACTTATTTAAA	0.289	0.425		0.282
ACAGACGAAGGAGCCGCACAGAAGTTATTAAGGGATGAATAATCCCTTAATATAAATATCTCTCACTTATTTAAA		0.633		
ACAGACGAAGGAGCCGCAAAGAAGTTATTAAGCGATGAATAATCCCTCAATATAAATACCTCTCACTTATTTAAA		0.118		
ACAGACGAAGGAGCCGCAAAGAAGTTATAAAAGGATAAATAATCCCTCAATATAAATATCTCTCACTTATTTAAA	0.141			
ACAGACGAAGGAGCCGCAAAGAAGTTATTAAGGGATGACTAATTCCTCAATATAAATATCTCTCACTTATTTAAA		0.314		
CGACATGTCCCGCTTCTTTCATTAATCCGTTGGCAACTGTTTTGCTATATACATTTACTTTTTAAGAGGAGGAAT			0.61	
ACAGACGAAGGAGCCGCAAAGAAGTTATAAAGGGATGAATAATCCCACAATATAAATATCTCTCACTTATTTAAA	0.175	0.183		
ACAGACGAAGGAGCCGCAAAGAACTTATTAAGGGATGAATAATCCTTCAATATAAATATCTCTCACTTATTTAAA		0.342		
ACAGACGAAGGAGCCGCAAAGAAGTTATTAAGGGATGAATAATCCCTTAATATAGATATCTCTCACTTATTTAAA		0.866		
CGACATGTCCCGCTTCTTTCATTAATCCGTTAGCAACAGTTTTGCTATATATATTTACCTTTTAAGAGGAGGAAT			0.588	
ACAGACGAAGGAGCCGCAAAGAAGTTATTAAGGGATGAATAGTCCCTCAATATAAATATCTCTCACTTATTTAAA	0.912	0.857		1.25
ACAGACGAAGGAGCCGCAACGAAGTTATTAAGGGATGAATAATACCTCAATATAAATATCTCTCACTTATTTAAA	0.111	0.18		
ACAGACGAAGGAGCCGCAAACAAGTTATTAACGGATGAATAATCCCTCAATATAAATATCTCTCACTTATTTAAA	0.111	0.0915		
ACAGACGAAGGAGCCGCAAAGAAATTATTACGGGATGAATAATCCCTCAATATAAATATCTCTCACTTATTTAAA		0.396		
ACAGACGAAGGAGCCGCAAAGAATTTATTACGGGATGAATAATCCCTCAATATAAATATCTCTCACTTATTTAAA	0.303	0.37		
CGACATGTCCCGCTTCTTTCATTAATCCGTTAGCAATTGTTTTGTTATATACATTTACCTTTTAAGAGGAGGAAT			0.425	
CGACATGTCCCGCTTCTTTCATTATTCCGTTAGCAACTGTTTTGCTATATACAGTTACCTTTTAAGAGGAGGAAT			0.649	
ACAGACGAAGGAGCCGCAAAGAAGTTATTAAGGGATGATAATCCCTCAATATAAATATCTCTCACTTATTTAAAG		0.861		
ACAGACGAAGGAGCCGCATAGAAGTAATTAAGGGATGAATAATCCCTCAATATAAATATCTCTCACTTATTTAAA		0.356		
ACAGACGAAGGAGCCGCAAATAAGTTAATAAGGGATGAATAATCCCCCAATATAAATATCTCTCACTTATTTAAA	0.208			
ACAGACGAAGGAGCCGCAATGAAGTTATTAAGTGATGAATAATCCGTCAATATAAATATCTCTCACTTATTTAAA		0.0953		
